Measurements reported in doi:10.1101/2021.02.24.432666 (bioRxiv, 2021).
Values joined by “and” are separate entries in the source; they are usually repeats but may differ in a detail not shown here. Identical values can stand only once. Like-named read-outs stand apart in the source and are kept apart here.

What was measured:
[1] = biological target: the molecule itself; test: cryo-EM structure
[2] = biological target: the molecule itself; test: cryo-EM structure; remark: listed apart in the source
[3] = biological target: the molecule itself; test: SEC + other: negative-staining electron microscopy
[4] = biological target: the molecule itself; test: negative-staining electron microscopy

Protein | stoichiometry N [2] | binding result [3] | other results
yeast TRiC subunit CCT1 (natural protein) not shown | 8 subunits per ring (double ring) | – | stoichiometry N [1]: 9 subunit pairs
yeast TRiC subunit CCT8 (natural protein, UniProt P47079 1-568, looked up) MSLRLPQNPNAGLFKQGYNSYSNADGQIIKSIAAIRELHQMCLTSMGPCGRNKIIVNHLGKIIITNDAATMLRELDIVHPAVKVLVMATEQQKIDMGDGTNLVMILAGELLNVSEKLISMGLSAVEIIQGYNMARKFTLKELDEMVVGEITDKNDKNELLKMIKPVISSKKYGSEDILSELVSEAVSHVLPVAQQAGEIPYFNVDSIRVVKIMGGSLSNSTVIKGMVFNREPEGHVKSLSEDKKHKVAVFTCPLDIANTETKGTVLLHNAQEMLDFSKGEEKQIDAMMKEIADMGVECIVAGAGVGELALHYLNRYGILVLKVPSKFELRRLCRVCGATPLPRLGAPTPEELGLVETVKTMEIGGDRVTVFKQEQGEISRTSTIILRGATQNNLDDIERAIDDGVAAVKGLMKPSGGKLLPGAGATEIELISRITKYGERTPGLLQLAIKQFAVAFEVVPRTLAETAGLDVNEVLPNLYAAHNVTEPGAVKTDHLYKGVDIDGESDEGVKDIREENIYDMLATKKFAINVATEAATTVLSIDQIIMAKKAGGPRAPQGPRPGNWDQED | – | binds | –
yeast TRiC subunit CCT3 (natural protein, UniProt P39077 1-534, looked up) MQAPVVFMNASQERTTGRQAQISNITAAKAVADVIRTCLGPKAMLKMLLDPMGGLVLTNDGHAILREIDVAHPAAKSMLELSRTQDEEVGDGTTTVIILAGEILAQCAPYLIEKNIHPVIIIQALKKALTDALEVIKQVSKPVDVENDAAMKKLIQASIGTKYVIHWSEKMCELALDAVKTVRKDLGQTVEGEPNFEIDIKRYVRVEKIPGGDVLDSRVLKGVLLNKDVVHPKMSRHIENPRVVLLDCPLEYKKGESQTNIEIEKEEDWNRILQIEEEQVQLMCEQILAVRPTLVITEKGVSDLAQHYLLKGGCSVLRRVKKSDNNRIARVTGATIVNRVEDLKESDVGTNCGLFKVEMIGDEYFSFLDNCKEPKACTIMLRGGSKDILNEIDRNLQDAMAVARNVMLSPSLSPGGGATEMAVSVKLAEKAKQLEGIQQWPYQAVADAMECIPRTLIQNAGGDPIRLLSQLRAKHAQGNFTTGIDGDKGKIVDMVSYGIWEPEVIKQQSVKTAIESACLLLRVDDIVSGVRKQE | – | binds | –
yeast TRiC subunit CCT4 (natural protein, UniProt P39078 1-528, looked up) MSAKVPSNATFKNKEKPQEVRKANIIAARSVADAIRTSLGPKGMDKMIKTSRGEIIISNDGHTILKQMAILHPVARMLVEVSAAQDSEAGDGTTSVVILTGALLGAAERLLNKGIHPTIIADSFQSAAKRSVDILLEMCHKVSLSDREQLVRAASTSLSSKIVSQYSSFLAPLAVDSVLKISDENSKNVDLNDIRLVKKVGGTIDDTEMIDGVVLTQTAIKSAGGPTRKEKAKIGLIQFQISPPKPDTENNIIVNDYRQMDKILKEERAYLLNICKKIKKAKCNVLLIQKSILRDAVNDLALHFLSKLNIMVVKDIEREEIEFLSKGLGCKPIADIELFTEDRLGSADLVEEIDSDGSKIVRVTGIRNNNARPTVSVVIRGANNMIIDETERSLHDALCVIRCLVKERGLIAGGGAPEIEISRRLSKEARSMEGVQAFIWQEFASALEVIPTTLAENAGLNSIKVVTELRSKHENGELNDGISVRRSGTTNTYEEHILQPVLVSTSAITLASECVKSILRIDDIAFSR | – | binds | –
yeast TRiC subunit CCT6 (natural protein) not shown | 8 subunits per ring (double ring) and 9 subunits per ring (double ring) | – | stoichiometry N [1]: 8 subunits per ring and 9 subunits per ring
yeast TRiC subunit CCT2 (natural protein) MSVQIFGDQVTEERAENARLSAFVGAIAVGDLVKSTLGPKGMDKLLQSASSNTCMVTNDGATILKSIPLDNPAAKVLVNISKVQDDEVGDGTTSVTVLSAELLREAEKLIDQSKIHPQTIIEGYRLASAAALDALTKAAVDNSHDKTMFREDLIHIAKTTLSSKILSQDKDHFAELATNAILRLKGSTNLEHIQIIKILGGKLSDSFLDEGFILAKKFGNNQPKRIENAKILIANTTLDTDKVKIFGTKFKVDSTAKLAQLEKAEREKMKNKIAKISKFGINTFINRQLIYDYPEQLFTDLGINSIEHADFEGVERLALVTGGEVVSTFDEPSKCKLGECDVIEEIMLGEQPFLKFSGCKAGEACTIVLRGATDQTLDEAERSLHDALSVLSQTTKETRTVLGGGCAEMVMSKAVDTEAQNIDGKKSLAVEAFARALRQLPTILADNAGFDSSELVSKLRSSIYNGISTSGLDLNNGTIADMRQLGIVESYKLKRAVVSSASEAAEVLLRVDNIIRARPRTANRQHM | 8 subunits per ring (double ring) | – | –
yeast TRiC subunit CCT7 (natural protein, UniProt P42943 1-550, looked up) MNFGSQTPTIVVLKEGTDASQGKGQIISNINACVAVQEALKPTLGPLGSDILIVTSNQKTTISNDGATILKLLDVVHPAAKTLVDISRAQDAEVGDGTTSVTILAGELMKEAKPFLEEGISSHLIMKGYRKAVSLAVEKINELAVDITSEKSSGRELLERCARTAMSSKLIHNNADFFVKMCVDAVLSLDRNDLDDKLIGIKKIPGGAMEESLFINGVAFKKTFSYAGFEQQPKKFNNPKILSLNVELELKAEKDNAEVRVEHVEDYQAIVDAEWQLIFEKLRQVEETGANIVLSKLPIGDLATQFFADRNIFCAGRVSADDMNRVIQAVGGSIQSTTSDIKPEHLGTCALFEEMQIGSERYNLFQGCPQAKTCTLLLRGGAEQVIAEVERSLHDAIMIVKRALQNKLIVAGGGATEMEVSKCLRDYSKTIAGKQQMIINAFAKALEVIPRQLCENAGFDAIEILNKLRLAHSKGEKWYGVVFETENIGDNFAKFVWEPALVKINALNSATEATNLILSVDETITNKGSESANAGMMPPQGAGRGRGMPM | – | binds | –
yeast CCT5 with the N-terminal 24 amino acids truncated (CCT5^ΔNT) (domain or fragment, UniProt P40413 25-562, looked up) MGRPFIIVKDQGNKKRQHGLEAKKSHILAARSVASIIKTSLGPRGLDKILISPDGEITITNDGATILSQMELDNEIAKLLVQLSKSQDDEIGDGTTGVVVLASALLDQALELIQKGIHPIKIANGFDEAAKLAISKLEETCDDISASNDELFRDFLLRAAKTSLGSKIVSKDHDRFAEMAVEAVINVMDKDRKDVDFDLIKMQGRVGGSISDSKLINGVILDKDFSHPQMPKCVLPKEGSDGVKLAILTCPFEPPKPKTKHKLDISSVEEYQKLQTYEQDKFKEMIDDVKKAGADVVICQWGFDDEANHLLLQNDLPAVRWVGGQELEHIAISTNGRIVPRFQDLSKDKLGTCSRIYEQEFGTTKDRMLIIEQSKETKTVTCFVRGSNKMIVDEAERALHDSLCVVRNLVKDSRVVYGGGAAEVTMSLAVSEEADKQRGIDQYAFRGFAQALDTIPMTLAENSGLDPIGTLSTLKSKQLKEKISNIGVDCLGYGSNDMKELFVVDPFIGKKQQILLATQLCRMILKIDNVIISGKDEY | – | – | binding result [4]: binds
